Results: the nanobody polyreactivity screen of Harvey et al. (2022)

Experiment: yeast display, Sf9 membrane polyspecificity reagent, FACS + sequencing; frameworks hold sequencing errors
Method in brief: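 Synthetic nanobody libraries on Saccharomyces cerevisiae BJ5465 were galactose-induced for 36–48 hours, stained 1 hour at 4 °C with 10% biotinylated, detergent-solubilized Sf9 membrane reagent and enriched on streptavidin microbeads. FACS then separated cells into low and high (top ~1%) gates by anti-HA (expression) and streptavidin (reagent binding) fluorescence. Genes were colony-PCR amplified, MiSeq 2 × 250 sequenced and CDR-length filtered. A clone's polyreactivity label is that of its gate of origin.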

Which “polyreactivity (PSR sort gate)” value does the source give for “QVQLVESGGGLVQAGGSLRLSCAASGRIFPYYTMGWYRQAPGKERELVAAISSSGGSTYYADSVKGRFTISRDNAKNTVYLQMNSLKPEDTAVYYCNIRRHSLYGGTTTRYDYWGQGTQVTVSS” here?
Its value is “high polyreactivity”.

With “QVQLVESGGGLVQAGGSLRLSCAASGRIFPYYVMGWYRQAPGKERELVASISSGGNTNYADSVKGRFTISRDNAKNTVYLQMNSLKPEDTAVYYCAARWRRKGYYWARFDYWGQGTQVTVSS” as the sequence, how does the “polyreactivity (PSR sort gate)” value read?
The value was “high polyreactivity”.

With “QVQLVESGGGLVQAGGSLRLSCAASGRIFQDNAMGWYRQTPGKERELVAAISRRGGSTYYADSVKGRFTISRDNAKYTVYLQMNSMKPEDTAVYYCAAKWSVEEDYWGQGTQVTVSS” as the sequence, how does the “polyreactivity (PSR sort gate)” value read?
Its value is “high polyreactivity”.

With “QVQLVESGGGLVQAGGSLRLSCAASGRIFQGNAMGWYRQATGKERELVAAITTSGGSTYYADSVKGRFTISRDNAKNTVYLQMNSLKPEDTAVYYCNVDPRKRSYDYWGQGTQVTVSS” as the sequence, how does the “polyreactivity (PSR sort gate)” value read?
The value was “high polyreactivity”.

Which “polyreactivity (PSR sort gate)” value does the source give for “QVQLVESGGGLVQAGGSLRLSCAASGRIFQGYAKGWYRQAPGKEREFVAAITASGGTTYYADSVKGRFTISRDNAKNTVYLQMNSLKPEDTAVYYCAKYRYTVAGYNYWGQGTQVTVSS” here?
Its value is “high polyreactivity”.

With “QVQLVESGGGLVQAGGSLRLSCAASGRIFQGYAMGWYRPAPGKERELLAAITVRGGTTYYADSVKGRFTISRDNAKNTVYLQMNSLKPEDTAVYYCNAAKLIHGYQSVYPGSNSRYYYWGQGTQVTVSS” as the sequence, how does the “polyreactivity (PSR sort gate)” value read?
Its value is “low polyreactivity”.

For “QVQLVESGGGLVQAGGSLRLSCAASGRIFQNYAAMGRYRPPPGKERELVASIRATGGSTYYADSVKGRFTISRDNAKNTVYLQMNSLKPEDTAVYYCAARFAAKSLPAYDYWGQGTQVTVSS”, which “polyreactivity (PSR sort gate)” value is on record?
Its value is “low polyreactivity”.

For “QVQLVESGGGLVQAGGSLRLSCAASGRIFQPYAMGWYRQAPGKERELVAAITRSGGSTYYADSVKGRFTISRDNAMNTVDLQLNSLKPEDTAVSYCASKVLYPYEYWGQGTQVTVSS”, which “polyreactivity (PSR sort gate)” value is on record?
Its value is “low polyreactivity”.

Which “polyreactivity (PSR sort gate)” value does the source give for “QVQLVESGGGLVQAGGSLRLSCAASGRIFQRYVMGWYRQAPGKERELVASISWRGGSTYYADSVKGRFTISRDNAKNTVYLQMNSLKPEDTAVYYCAARRYTDYVRVAREMDYWGQGTQVSVSS” here?
The value was “high polyreactivity”.

For “QVQLVESGGGLVQAGGSLRLSCAASGRIFQTYAMGWYRQAPGKERELVAAISSRGRTYYADSVKGRFTISRDNAKNTVYLQMNSLKPGDTAVYYCAARDWSHRPRGYDYWGQGTKVTVSS”, which “polyreactivity (PSR sort gate)” value is on record?
Its value is “high polyreactivity”.

Which “polyreactivity (PSR sort gate)” value does the source give for “QVQLVESGGGLVQAGGSLRLSCAASGRIFQTYAMGWYRQAPGNERELVARIRLSGGSTYYADSVKGRFTISRDNAKNTVYLQMNRLKPEATAVYYCAALYSRARFTDPYYYWGQGTQVTVSS” here?
The value was “high polyreactivity”.

Which “polyreactivity (PSR sort gate)” value does the source give for “QVQLVESGGGLVQAGGSLRLSCAASGRIFQVNDKGFYIQAPGKETELVASITYSGGSTYYADSVKGRFTISRDNAKITVYLQMNSLKPEDTAVYYCNKQNYVWVLVIYYYWGQGTQVTVSS” here?
The value was “low polyreactivity”.

With “QVQLVESGGGLVQAGGSLRLSCAASGRIFQWYAMGWYRQAPGKERELVATISDGDSTNYADSVKGRFTISRDNAKNTVYFQMNSLKPEDTAVYYCAALDIYYDSYYWYDYWGQGTQVTVSS” as the sequence, how does the “polyreactivity (PSR sort gate)” value read?
The value was “high polyreactivity”.

Which “polyreactivity (PSR sort gate)” value does the source give for “QVQLVESGGGLVQAGGSLRLSCAASGRIFQYNAMGWYRQAPGKERELVAAITGGGSTYYADSVKGRFTISRDNAKNTVYLQMNSLKPEDTAVYYCNKAWSCSWLLTYGYWGQGTQVTVSS” here?
Its value is “high polyreactivity”.

With “QVQLVESGGGLVQAGGSLRLSCAASGRIFQYNAMGWYRQAPGKESELVAAIRRGGGSTYYADSVKGRFTISRDNAKNTVYLQMNSLKPEDTAVYYCAARRKRVSFYPEYDYWGQGTQVTVSS” as the sequence, how does the “polyreactivity (PSR sort gate)” value read?
Its value is “low polyreactivity”.

With “QVQLVESGGGLVQAGGSLRLSCAASGRIFQYYAMGWYRQAPGKERELVAAISRGGSTNYADSVKGRFTISRDNAKNTVYCQMNSLIPVDTAVYYCAGDEYRYYFFRPGIGYDYWGQGTQVTVSS” as the sequence, how does the “polyreactivity (PSR sort gate)” value read?
The value was “low polyreactivity”.

For “QVQLVESGGGLVQAGGSLRLSCAASGRIFQYYVMGWYRQAPGKERELVAAITSGGGTKYADSVKGRFTISRDNAKNTVYLQMNSLKPEDTAVYYCAAAWFDQYSRYDYWGQGTQVTVSS”, which “polyreactivity (PSR sort gate)” value is on record?
Its value is “low polyreactivity”.

Which “polyreactivity (PSR sort gate)” value does the source give for “QVQLVESGGGLVQAGGSLRLSCAASGRIFRANTMGWYRQAPGKERELVATSSKNGGRTYYADSVKGRFTISRDNAKNTVYLQMNSLKPEDTAVYYCNAEWRGWRFLEYGSYIYQSGYWGQGTQVTVSS” here?
The value was “high polyreactivity”.

With “QVQLVESGGGLVQAGGSLRLSCAASGRIFRAYAMGWYRQAPGKERELVAAITSGVSTNYADSVKGRFTISRDNAKNTVYLQMNSLKAEDTAVYYCAADIYVIYEYWGQGTQVTVSS” as the sequence, how does the “polyreactivity (PSR sort gate)” value read?
Its value is “low polyreactivity”.

With “QVQLVESGGGLVQAGGSLRLSCAASGRIFRDNAMGWYRQAPGKERELVAAITSSGGSTNYADSVKGRFTISRDNAKNTVYLQMNSLKPEDTAVYYCNTDRLGAARYDYWGQGTQVTVSS” as the sequence, how does the “polyreactivity (PSR sort gate)” value read?
The value was “low polyreactivity”.

For “QVQLVESGGGLVQAGGSLRLSCAASGRIFRDYAMGWYRQAPGKERELVAAIRSVGNTNYADSVKGRFTISRDNAKNTVYLQMNSLKPEDTAVYYCNRQGSYFSRQAIGDFRFDYWGQGTQVTVSS”, which “polyreactivity (PSR sort gate)” value is on record?
The value was “low polyreactivity”.

With “QVQLVESGGGLVQAGGSLRLSCAASGRIFRDYAMGWYRQAPVKERELVAAITRSGDTTYYADSVKGRFTISRDNAKNTVYLQMNSLKPEDTAVYYCAARYVSRYYVYRGFEYWGQGTQVTVSS” as the sequence, how does the “polyreactivity (PSR sort gate)” value read?
The value was “high polyreactivity”.

For “QVQLVESGGGLVQAGGSLRLSCAASGRIFRFYAMGWSRQAPGKEREMVAVISTGGRTNYADSVKGRFTISRDNGKNTVYLQMNSLKPVDSAVYYCAAEYTNIGRYDGWNYNYWGQGTQVTVSS”, which “polyreactivity (PSR sort gate)” value is on record?
Its value is “high polyreactivity”.

With “QVQLVESGGGLVQAGGSLRLSCAASGRIFRGNAMGWYRQAPGKERELVAASTSSGDSTFYADSVKGRFTISRDNAKNTVYLQMNSLKPEDTAVYYCAANVRYQRTSGYYYWGQGTQVTVSS” as the sequence, how does the “polyreactivity (PSR sort gate)” value read?
Its value is “high polyreactivity”.

Which “polyreactivity (PSR sort gate)” value does the source give for “QVQLVESGGGLVQAGGSLRLSCAASGRIFRGNAMGWYRQPPGKERELGATITRSGARTYYADSVKGRFTISRDNAKNTVYLQMNSLKPEDTAVYYCAARRVRSYAYDYWGQGTQVTVSS” here?
Its value is “high polyreactivity”.

For “QVQLVESGGGLVQAGGSLRLSCAASGRIFRGNTMGWYRQAPGKERELVAAITRGGSTSYADSVKGRFTISRDNAKNTVYLQMNSLKPEDTAVFYCATRTHGEGTRRDSWGQGTQVTVSS”, which “polyreactivity (PSR sort gate)” value is on record?
Its value is “low polyreactivity”.

Which “polyreactivity (PSR sort gate)” value does the source give for “QVQLVESGGGLVQAGGSLRLSCAASGRIFRGYAMGWYIQAPGKEREFVADITRSGGSTYYADSVKGRFTISRDNAKNTVYLQMNSLKPEDTAVYYCAREWYQYSPYHRFDYWGQGTQVTVSS” here?
Its value is “high polyreactivity”.

With “QVQLVESGGGLVQAGGSLRLSCAASGRIFRGYAMGWYRQAPGKERELVAAIDTDTGITYYADSVKGRFTISRDNAKNTVYLQMNSLKPEDTAVYYCAAETYYAVSTGYDFDYWGQGTQVTVSS” as the sequence, how does the “polyreactivity (PSR sort gate)” value read?
Its value is “high polyreactivity”.

For “QVQLVESGGGLVQAGGSLRLSCAASGRIFRGYAMGWYRQAPGKERELVAAISRSGGSTYYADSVKGRFTISRDNAKNTVYLQMNSLKPEDTAVYYCAAVPYYVWYYYPIGGYWGQGTQVTVSS”, which “polyreactivity (PSR sort gate)” value is on record?
The value was “high polyreactivity”.

With “QVQLVESGGGLVQAGGSLRLSCAASGRIFRGYAMGWYRQAPGKERELVADISSGASTNYADSVKGRFTISRDNAKNTVYLQMNSLKPEDTAVYYCAAQHSVLAYFEYDYWGQGTQVTVSS” as the sequence, how does the “polyreactivity (PSR sort gate)” value read?
The value was “low polyreactivity”.

For “QVQLVESGGGLVQAGGSLRLSCAASGRIFRGYAMGWYRQAPGKERELVATITARGGNTYYADSVKGRFTISRDNAKNTVYLQMNSLKPEETAVYYCAATFYRRYVDLGYWGQGTQVTVSS”, which “polyreactivity (PSR sort gate)” value is on record?
The value was “high polyreactivity”.

For “QVQLVESGGGLVQAGGSLRLSCAASGRIFRGYTMGWYRQAPGKEREFVAAITANGGRTYYADSVKGRFTISRDTAKNTVYLKMNRLKPEDTAVYYCNARTYTYRGSFDYWVQGTQVTVSS”, which “polyreactivity (PSR sort gate)” value is on record?
The value was “high polyreactivity”.

For “QVQLVESGGGLVQAGGSLRLSCAASGRIFRHNTMGWYRQAPGKERELDAGITASGGDTYYADSVKGRFTISRDNAKNTVYLQMNSLKPEDTAVYYCAKRGQSYTYRRYDYWGQGTQVTVSS”, which “polyreactivity (PSR sort gate)” value is on record?
The value was “low polyreactivity”.

With “QVQLVESGGGLVQAGGSLRLSCAASGRIFRINAMGWYRQAPGKERELVASITSRAGSTYYADSVKGRFTISRDNAKNTVYLQMNSLKPEDTAVYYCAAASRRGYYYWGQGTQVTVSS” as the sequence, how does the “polyreactivity (PSR sort gate)” value read?
Its value is “high polyreactivity”.

For “QVQLVESGGGLVQAGGSLRLSCAASGRIFRINDMGWYIQAPGKERELVAAITWSGGSTYYADSVKGRFTISRDNAKNPVYLPMNSLKPEDTAGYYCAADQAYFWGYYYWGQGTQVTVSS”, which “polyreactivity (PSR sort gate)” value is on record?
The value was “low polyreactivity”.

Which “polyreactivity (PSR sort gate)” value does the source give for “QVQLVESGGGLVQAGGSLRLSCAASGRIFRKYAMGWYRQAPGKERELVAAINWSGGSTYYADSVKGRFTISRDNAKNTVYLQMNSLKPEDTAVYYCAAYVRRVGYYYWGQGTQVTVSS” here?
The value was “high polyreactivity”.

With “QVQLVESGGGLVQAGGSLRLSCAASGRIFRKYTMGWYRQAPGKERELVAAITGTGGSTYYADSVKGRFTISRDNAKNTVYLQMNSLKPEDTAVYYCAAVARFRYSDMYYWGQGTQVTVSS” as the sequence, how does the “polyreactivity (PSR sort gate)” value read?
Its value is “high polyreactivity”.

For “QVQLVESGGGLVQAGGSLRLSCAASGRIFRLYAMGWYRQAPGKERELVASISKSGGSTYYADSVKGRFTISRDNAKNTVYLQMNSLKPADSAVYYCAADYRTHGGYEGTFDYWGQGTQVTVSS”, which “polyreactivity (PSR sort gate)” value is on record?
The value was “low polyreactivity”.

For “QVQLVESGGGLVQAGGSLRLSCAASGRIFRNNAMGGDRQAPGKERELVASITSSGGSTYYADSVKGRFTISRDNAKNTVYLQMNSLKPEDTAVYYCAAYTRSGYGYKLYYYWGQGTQVNVSS”, which “polyreactivity (PSR sort gate)” value is on record?
Its value is “high polyreactivity”.

For “QVQLVESGGGLVQAGGSLRLSCAASGRIFRNYAMGWYRQAPGKERELVPAITRGGSTYYAVSVKGRFSISRDNAKNTVYLQMNSLKPEDNAVYYCNKAWPYSHPVQYHRSRSYDYWGQGTQVTVSS”, which “polyreactivity (PSR sort gate)” value is on record?
Its value is “high polyreactivity”.
